B1: B11-Bv (VHH)
chain: EVQLQASGGGFVQPGGSLRLSCAASGSTWFREIMGWFRQAPGKEREFVSAISSDPTWHAYYADSVKGRFTISRDNSKNTVYLQMNSLRAEDTATYYCAPLAGTESIHWWDPWHESSYWGQGTQVTVSSAAAEVQLQASGGGFVQPGGSLRLSCAASGSTWFREIMGWFRQAPGKEREFVSAISSDPTWHAYYADSVKGRFTISRDNSKNTVYLQMNSLRAEDTATYYCAPLAGTESIHWWDPWHESSYWGQGTQVTVSSHHHHHH
notes: Bivalent (monoparatopic) tandem of two B11 VHHs; also called bivalent hybribody B11-Bv; bivalent VHH B11bv
B2: B11-F06 (VHH)
chain: EVQLQASGGGFVQPGGSLRLSCAASGSTWFREIMGWFRQAPGKEREFVSAISSDPTWHAYYADSVKGRFTISRDNSKNTVYLQMNSLRAEDTATYYCAPLAGTESIHWWDPWHESSYWGQGTQVTVSSGGGSGGGSGGGSGGGSEVQLQASGGGFVQPGGSLRLSCAASGDTWSLEIMGWFRQAPGKEREFVSAISSEDGWHAYYADSVKGRFTISRDNSKNTVYLQMNSLRAEDTATYYCAKIENWIQAVEGEMSDYWGQGTQVTVSSHHHHHH
notes: Bivalent (biparatopic) tandem B11-linker-F06; also called bivalent hybribody B11-F06; bivalent VHH B11F06
B3: B11 (VHH)
VHH: EVQLQASGGGFVQPGGSLRLSCAASGSTWFREIMGWFRQAPGKEREFVSAISSDPTWHAYYADSVKGRFTISRDNSKNTVYLQMNSLRAEDTATYYCAPLAGTESIHWWDPWHESSYWGQGTQVTVSS
notes: Monovalent VHH from the synthetic hs2dAb library, made in E. coli WK6, purified by its His tag, detected by anti-cMyc or anti-6xHis; also called VHH B11; BI 1; not shown: cMyc tag and 6xHis tag (pHEN2 vector)
B4: B11-A08 (VHH)
chain: EVQLQASGGGFVQPGGSLRLSCAASGSTWFREIMGWFRQAPGKEREFVSAISSDPTWHAYYADSVKGRFTISRDNSKNTVYLQMNSLRAEDTATYYCAPLAGTESIHWWDPWHESSYWGQGTQVTVSSGGGSGGGSGGGSGGGSEVQLQASGGGFVQPGGSLRLSCAASGYYSYSSTMGWFRQAPGKEREFVSAISFYSDMAHYYADSVKGRFTISRDNSKNTVYLQMNSLRAEDTATYYCAAFSKLGKIKYWGQGTQVTVSSHHHHHH
notes: Bivalent (biparatopic) tandem B11-linker-A08; also called bivalent hybribody B11-A08; bivalent VHH B11A08
B5: F06 (VHH)
VHH: EVQLQASGGGFVQPGGSLRLSCAASGDTWSLEIMGWFRQAPGKEREFVSAISSEDGWHAYYADSVKGRFTISRDNSKNTVYLQMNSLRAEDTATYYCAKIENWIQAVEGEMSDYWGQGTQVTVSS
notes: Monovalent VHH from the synthetic hs2dAb library; His-tagged, detected by anti-cMyc or anti-6xHis; also called VHH F06; single domain antibody F06; not shown: cMyc tag and 6xHis tag (pHEN2 vector)
B6: A08 (VHH)
VHH: EVQLQASGGGFVQPGGSLRLSCAASGYYSYSSTMGWFRQAPGKEREFVSAISFYSDMAHYYADSVKGRFTISRDNSKNTVYLQMNSLRAEDTATYYCAAFSKLGKIKYWGQGTQVTVSS
notes: Monovalent VHH from the synthetic hs2dAb library; His-tagged, detected by anti-cMyc or anti-6xHis; also called VHH A08; single domain antibody A08; not shown: cMyc tag and 6xHis tag (pHEN2 vector)

The binders below were run against T1, human plasminogen activator inhibitor-1 (human, UniProt P05121 24-402) (assay: specificity test of Example 1 (refers to FIG. 2E-G)).
T1 construct: also called hPAI-1; human PAI-1
T1 sequence (P05121 24-402 limits assumed): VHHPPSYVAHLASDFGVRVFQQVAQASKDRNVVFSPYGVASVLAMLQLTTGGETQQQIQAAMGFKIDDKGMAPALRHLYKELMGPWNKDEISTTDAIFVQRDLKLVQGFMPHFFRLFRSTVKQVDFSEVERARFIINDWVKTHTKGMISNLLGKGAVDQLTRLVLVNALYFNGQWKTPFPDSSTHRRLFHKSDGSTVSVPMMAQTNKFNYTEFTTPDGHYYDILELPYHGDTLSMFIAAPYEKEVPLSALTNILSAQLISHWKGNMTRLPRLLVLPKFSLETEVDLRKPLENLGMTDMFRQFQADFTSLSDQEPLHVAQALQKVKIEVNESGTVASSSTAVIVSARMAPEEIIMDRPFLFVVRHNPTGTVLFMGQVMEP

Binder	binding result
B1	no binding
B2	no binding
B3	no binding
B4	no binding

Target: T2, human protease nexin-1 (human, UniProt P07093 20-398)
T2 chain: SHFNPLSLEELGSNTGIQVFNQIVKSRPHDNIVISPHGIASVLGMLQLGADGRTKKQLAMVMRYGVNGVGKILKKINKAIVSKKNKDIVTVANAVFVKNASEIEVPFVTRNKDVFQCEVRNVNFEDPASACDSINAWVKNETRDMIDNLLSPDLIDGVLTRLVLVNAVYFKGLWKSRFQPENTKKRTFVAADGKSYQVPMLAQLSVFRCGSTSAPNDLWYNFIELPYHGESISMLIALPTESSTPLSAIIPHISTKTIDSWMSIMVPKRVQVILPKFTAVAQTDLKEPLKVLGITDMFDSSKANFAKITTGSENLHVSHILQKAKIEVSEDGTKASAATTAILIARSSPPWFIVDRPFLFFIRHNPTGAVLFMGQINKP
Assay: inhibition of PN-1 activity (residual thrombin activity, chromogenic substrate)

Binder	IC50 [nM]
B5	230
B6	1170
B3	60

Target: T3, murine protease nexin-1 (murine, UniProt Q07235 20-397)
T3 chain: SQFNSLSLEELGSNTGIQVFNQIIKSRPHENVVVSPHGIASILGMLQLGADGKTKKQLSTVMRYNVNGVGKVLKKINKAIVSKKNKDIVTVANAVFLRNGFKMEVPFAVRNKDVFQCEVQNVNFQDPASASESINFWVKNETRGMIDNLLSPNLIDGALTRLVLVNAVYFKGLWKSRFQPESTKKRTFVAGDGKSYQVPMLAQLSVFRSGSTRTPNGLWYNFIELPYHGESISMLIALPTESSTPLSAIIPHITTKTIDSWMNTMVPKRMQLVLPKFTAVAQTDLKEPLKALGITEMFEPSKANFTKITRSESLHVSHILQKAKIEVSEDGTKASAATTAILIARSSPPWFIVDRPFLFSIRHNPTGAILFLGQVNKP
Assay: as above

Binder	IC50 [nM]
B5	670
B6	3540
B3	1270

The binders below were run against T4, PN-1 released from TRAP-activated platelets (Homo sapiens (Human), UniProt P07093 20-398) (assay: cell-based or functional assay).
T4 sequence: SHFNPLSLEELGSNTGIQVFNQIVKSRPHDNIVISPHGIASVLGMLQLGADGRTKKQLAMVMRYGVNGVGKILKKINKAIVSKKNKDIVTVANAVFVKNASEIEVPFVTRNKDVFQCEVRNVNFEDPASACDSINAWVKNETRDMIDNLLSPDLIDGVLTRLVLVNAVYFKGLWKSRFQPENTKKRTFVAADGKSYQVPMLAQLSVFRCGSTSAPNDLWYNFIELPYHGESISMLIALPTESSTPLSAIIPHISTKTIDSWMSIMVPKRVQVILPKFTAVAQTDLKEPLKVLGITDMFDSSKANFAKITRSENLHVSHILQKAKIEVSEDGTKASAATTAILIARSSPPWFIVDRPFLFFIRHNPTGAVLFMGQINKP

Binder	thrombin activity restored (supernatant of TRAP-activated platelets, 0.1 nM thrombin, 1 µM bivalent VHH) [%]
B1	97
B2	88
B4	100

The binders below were run against T5, murine protease nexin-1 (murine, UniProt Q07235 20-397) (assay: cell-based or functional assay).
T5 sequence (looked up): T3 chain

Binder	IC50 (thrombin activity assay, 10 nM PN-1, 1 nM thrombin) [nM]	recovery of thrombin activity (percentage of thrombin alone; 1 nM thrombin, 10 nM PN-1, 10 µM VHH) [%]	modified prothrombin time (PT), murine plasma with 62.5 nM mPN-1 and 288 nM bivalent VHH [s]
B5	560	96	
B1	825		83.5
B6	2880	94	
B2	414		83.3
B3	1580	92	
B4	524		93.2

The binders below were run against T6, human protease nexin-1 (human, UniProt P07093 20-398) (assay: cell-based or functional assay).
T6 sequence (looked up): T2 chain

Binder	IC50 (thrombin activity assay, 10 nM PN-1, 1 nM thrombin) [nM]	recovery of thrombin activity (percentage of thrombin alone; 1 nM thrombin, 10 nM PN-1, 10 µM VHH) [%]
B5	290	100
B1	41	
B6	960	100
B2	62	
B3	50	100
B4	142	

Target: T2, human protease nexin-1
Assay: inhibition of PN-1 activity (residual thrombin activity, chromogenic substrate)
Remark: another data set of the same source

Binder	IC50 [nM]
B1	40
B2	68
B4	139

Target: T3, murine protease nexin-1
Assay: as above
Remark: another data set of the same source

Binder	IC50 [nM]
B1	509
B2	254
B4	395

Each binder was assayed against T1, human plasminogen activator inhibitor-1 (assay: non-adsorbed phage ELISA, phage on coated hPAI-1, anti-M13 detection).

Binder	binding result
B6	no binding

These binders were tested against T7, murine plasminogen activator inhibitor-1 (murine, UniProt P22777 23-402) (assay: ELISA, PAI-1 captured on anti-PAI-1 mAb, anti-6xHis detection).
T7 construct: also called mPAI-1; murine PAI-1
T7 sequence (looked up): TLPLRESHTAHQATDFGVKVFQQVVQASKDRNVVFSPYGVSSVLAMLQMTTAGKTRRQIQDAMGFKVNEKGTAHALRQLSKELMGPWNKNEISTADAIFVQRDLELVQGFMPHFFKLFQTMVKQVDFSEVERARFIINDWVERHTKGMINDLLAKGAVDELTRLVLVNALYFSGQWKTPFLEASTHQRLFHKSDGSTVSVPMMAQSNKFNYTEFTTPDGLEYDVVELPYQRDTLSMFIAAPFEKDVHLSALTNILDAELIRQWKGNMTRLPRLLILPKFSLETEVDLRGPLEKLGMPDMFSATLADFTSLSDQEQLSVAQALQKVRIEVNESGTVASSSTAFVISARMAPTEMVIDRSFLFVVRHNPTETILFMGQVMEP

Binder	binding result
B5	no binding (tested: 10 µg/mL)
B6	no binding (tested: 10 µg/mL)
B3	no binding (tested: 10 µg/mL)

What follows are binders tested against T1, human plasminogen activator inhibitor-1 in the same assay as above.

Binder	binding result
B5	no binding (tested: 10 µg/mL)
